Where two headings read alike, the source gives them in different places.
T1: soluble Homo sapiens CD131 comprising a C-terminal 6xHis tag (human, UniProt P32927 17-438)
T1 construct: truncated after Ser438, C-terminal 6xHis; also called shCD131; shβc
T1 sequence: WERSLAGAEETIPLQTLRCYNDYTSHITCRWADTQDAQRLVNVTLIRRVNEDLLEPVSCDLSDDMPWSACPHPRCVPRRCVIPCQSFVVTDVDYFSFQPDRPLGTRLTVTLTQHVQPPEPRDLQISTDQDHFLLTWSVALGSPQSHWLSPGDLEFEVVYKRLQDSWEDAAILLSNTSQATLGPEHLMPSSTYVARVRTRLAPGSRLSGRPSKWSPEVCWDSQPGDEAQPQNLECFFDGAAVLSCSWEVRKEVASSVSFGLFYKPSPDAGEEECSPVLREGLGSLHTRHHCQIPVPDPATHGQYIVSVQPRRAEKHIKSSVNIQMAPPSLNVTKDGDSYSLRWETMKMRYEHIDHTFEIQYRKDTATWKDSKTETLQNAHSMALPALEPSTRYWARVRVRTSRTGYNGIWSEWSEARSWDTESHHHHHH

T2: human CD131 (human, UniProt P32927 17-897)
T2 construct: on transfected FS293F cells, TF-1 cells, human neutrophils and eosinophils, there together with the cytokine-specific alpha chains; also called hCD131; βc
T2 sequence: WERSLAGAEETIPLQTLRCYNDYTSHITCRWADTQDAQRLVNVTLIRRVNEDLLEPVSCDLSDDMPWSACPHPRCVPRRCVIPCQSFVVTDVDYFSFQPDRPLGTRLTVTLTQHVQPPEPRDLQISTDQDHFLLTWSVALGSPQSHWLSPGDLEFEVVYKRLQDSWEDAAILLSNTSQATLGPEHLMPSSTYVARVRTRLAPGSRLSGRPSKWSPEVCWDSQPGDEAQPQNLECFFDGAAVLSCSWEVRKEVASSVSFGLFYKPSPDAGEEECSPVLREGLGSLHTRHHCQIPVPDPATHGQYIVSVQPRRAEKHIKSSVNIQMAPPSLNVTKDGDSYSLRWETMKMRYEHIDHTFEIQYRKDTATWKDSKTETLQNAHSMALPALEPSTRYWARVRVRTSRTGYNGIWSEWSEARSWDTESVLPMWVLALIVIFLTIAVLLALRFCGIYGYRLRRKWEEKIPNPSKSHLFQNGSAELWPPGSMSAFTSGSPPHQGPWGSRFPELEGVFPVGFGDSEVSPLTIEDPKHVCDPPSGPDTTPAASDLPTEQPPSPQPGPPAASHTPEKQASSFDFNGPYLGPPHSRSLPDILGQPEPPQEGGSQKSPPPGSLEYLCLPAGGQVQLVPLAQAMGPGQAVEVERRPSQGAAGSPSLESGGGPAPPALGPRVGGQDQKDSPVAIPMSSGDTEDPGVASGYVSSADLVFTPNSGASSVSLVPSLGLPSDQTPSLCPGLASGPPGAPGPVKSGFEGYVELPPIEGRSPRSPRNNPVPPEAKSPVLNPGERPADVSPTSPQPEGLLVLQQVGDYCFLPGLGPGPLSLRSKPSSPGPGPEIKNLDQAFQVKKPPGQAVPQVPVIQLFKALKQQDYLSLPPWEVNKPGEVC


How the values were obtained:
[1] = molecular target: T1, soluble Homo sapiens CD131 comprising a …; test: SPR, kinetics, Fab over captured shCD131
[2] = molecular target: T2, human CD131; test: saturation binding of radio-iodinated Fab to cells; row 'Average for all cells (±SEM)' (neutrophils, TF1 cells)
[3] = molecular target: T2, human CD131; test: saturation binding of radio-iodinated Fab to TF1 cells (third of three values in the cell)
Experimental: (§1) Cytokines and antibodies were radio-iodinated using Pierce Pre-Coated Iodination tubes (Thermo Scientific) according to the manufacturer's instructions. MAb binding to cells expressing hβc was determined by incubating 1-2×10⁶ cells with radio-iodinated mAb at a range of concentrations at 23° C. for 1-2 hours with gentle mixing. Cell suspensions were then centrifuged through fetal calf serum (FCS) and radioactivity associated with the cells pellets was assessed by counting in a Wizard² 2470 Automatic Gamma Counter (Perkin Elmer, Rowville, VIC, Australia). Non-specific binding was assessed for each radio-iodinated mAb in the presence of at least a 500-fold excess of unlabeled mAb. […] Competition binding assays were performed essentially as previously described (41). Briefly 1-2×10⁶ cells were incubated with mAb or cytokine competitor at a range of concentrations at 4° C. for 45 minutes with gentle mixing. Radio-iodinated cytokine or mAb was then added and the mixture incubated at 23° C. for a further 1-2 hours with gentle mixing. Cell suspensions were then centrifuged through FCS and radioactivity associated with the cells pellets assessed by counting.

[4] = molecular target: T2, human CD131; test: saturation binding of radio-iodinated Fab to TF1 cells (first of three values in the cell)
Experimental: as §1

[5] = molecular target: T2, human CD131; test: saturation binding of radio-iodinated Fab to TF1 cells (second of three values in the cell)
Experimental: as §1

[6] = molecular target: T2, human CD131; test: saturation binding of radio-iodinated Fab on human neutrophils
Experimental: Each point is the mean of duplicate determinations of cell-bound radio-iodinated antibody after subtraction of non-specific binding. Data from a single neutrophil binding experiment and a representative eosinophil binding experiment, n=2 is shown.
as §1, with “Radio-iodinated cytokine or mAb was then added and the mixture incubated at 23° C. for a further 1-2 hours with gentle mixing.” left out

[7] = molecular target: T1, soluble Homo sapiens CD131 comprising a …; test: SPR, Fab over captured shCD131
Experimental: Binding kinetics were measured using SPR with a BIAcore™ A-100 instrument (GE Healthcare Life Sciences). An anti-C-terminal Hexa-His antibody (3H3) was immobilized on spots 1, 2, 4 and 5 of each flow cell of a CM-5 sensor chip (GE Healthcare Life Sciences) using amine-coupling chemistry (116). […] As shβc is a dimer, kinetics assays were performed with shβc captured on the sensor surface, and purified Fab injected as the analyte. Avidity effects were avoided by the use of Fab rather than whole IgG.
shCD131 was captured on spots 1 and 5 of each flow cell for 2 minutes at a concentration of 0.4 μg/ml. […] For some analysis purified Fab was injected over each flow cell for 3 minutes and dissociation was monitored for a further 10 minutes. Regeneration of the surface was performed after each cycle with a 40 second injection of 25 mM glycine, pH 2.0. The analysis was performed with Fabs at several concentrations between 100 and 0.31 nM, with each concentration analyzed twice and in random order. The analysis was performed at a flow rate of 30 μl/min in HBS-EP buffer (10 mM Hepes, 150 mM NaCl, 3 mM EDTA, 0.005% Tween 20, pH 7.4) at 37° C. Responses from spots 2 and 4 of each flow cell, (in which shβc was not captured, but otherwise treated identically), were subtracted from those of spots 1 and 5 respectively to produce reference subtracted data. Reference subtracted responses from a blank injection comprising buffer alone were subtracted from the resultant sensorgrams to produce double referenced data suitable for kinetic analysis. Double-referenced sensorgrams were fitted using non-linear regression to a model describing 1:1 kinetics, including a term for mass transport limitation. The Rₘₐₓ value was fitted locally to account for slight deviations in the level of sCD131 captured, with association rate (kₐ), dissociation rate (kd) and equilibrium dissociation constant (KD) fitted globally.

[8] = molecular target: T2, human CD131; test: cell-based or functional assay
[9] = molecular target: T2, human CD131; test: cell-based or functional assay; remark: listed apart in the source
[10] = molecular target: T2, human CD131; test: cell-based or functional assay; remark: listed apart in the source

Kd [1] [nM]	Kd [2] [nM]	Kd [3] [nM]	Kd [4] [nM]	Kd [5] [nM]	Kd [6] [nM]	Kd [7] [nM]	koff [7] [s⁻¹]	kon [7] [M⁻¹ s⁻¹]	fold improvement in GM-CSF potency over parental 9A2 [8] [fold]	IC50 GM-CSF, TF-1 proliferation [9] [nM]	pStat5 IC50 GM-CSF, TF-1 bla reporter [9] [nM]	IC50 GM-CSF, TF-1 proliferation [10] [nM]	Binder
0.1	0.569	0.522	0.656	0.668	0.384	0.1	0.000418	4e+06					9A2-VR24.29 Fab (Fab, V domains shown, recombinant Fab; also called recombinant Fab fragment of 9A2-VR24.29) VH: EVQLLESGGGLVQPGGSLRLSCAASGFTFPWYRVHWVRQAPGKGLEWVSSIRSSGGFPYYNYKVKGRFTISRDNSKNTLYLQMNSLRAEDTAVYYCARFYDSFFDIWGQGTMVTVSS VL: DIQMTQSPSSVSASVGDRVTITCRASQGISSWLAWYQQKPGKAPKLLIYAASSLQSGVPSRFSGSGSGTDFTLTISSLQPEDFATYYCQQANSFPITFGQGTRLEIKR
									518	0.88	4.1	0.88	9A2-VR39 (antibody, V domains shown) VH: EVQLLESGGGLVQPGGSLRLSCAASGFTFSHYHMLWVRQAPGKGLEWVSSINGRGRVTYYADSVKGRFTISRDNSKNTLYLQMNSLRAEDTAVYYCARFYDSFFDIWGQGTMVTVSS VL: DIQMTQSPSSVSASVGDRVTITCRASQGISSWLAWYQQKPGKAPKLLIYAASSLQSGVPSRFSGSGSGTDFTLTISSLQPEDFATYYCQQANSFPITFGQGTRLEIKR

Source: patent publication US20190062438A1 (CSL, published 2019)
